Key:
[1] = target: T1, NF-κB p50 subunit (endogenous, HEK-293T cells) (UniProt P19838 1-433, limits assumed); test: PD and Co-IP
T1 construct: Endogenous protein co-precipitated with HA-IκBα from transfected HEK-293T cells; also called p50 NF-κB
T1 sequence (looked up): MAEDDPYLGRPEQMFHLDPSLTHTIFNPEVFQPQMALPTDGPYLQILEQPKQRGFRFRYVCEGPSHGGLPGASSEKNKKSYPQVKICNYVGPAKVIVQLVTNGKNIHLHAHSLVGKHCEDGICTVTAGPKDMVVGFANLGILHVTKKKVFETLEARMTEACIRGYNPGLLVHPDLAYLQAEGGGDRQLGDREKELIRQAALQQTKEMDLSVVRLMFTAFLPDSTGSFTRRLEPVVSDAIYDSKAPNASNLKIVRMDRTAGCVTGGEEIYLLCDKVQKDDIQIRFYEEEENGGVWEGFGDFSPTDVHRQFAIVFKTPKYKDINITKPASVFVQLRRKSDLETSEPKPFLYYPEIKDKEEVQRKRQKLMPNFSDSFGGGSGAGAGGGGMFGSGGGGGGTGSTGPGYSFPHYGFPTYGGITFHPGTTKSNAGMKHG

[2] = target: T2, NF-κB p65 subunit (endogenous, HEK-293T cells) (UniProt Q04206 1-551); test: PD and Co-IP
T2 construct: Endogenous protein co-precipitated with HA-IκBα from transfected HEK-293T cells; also called p65/NF-κB; p65/RelA

[3] = target: T1, NF-κB p50 subunit (endogenous, HEK-293T …); test: Co-IP from transfected HEK-293T cells, WB
[4] = target: T2, NF-κB p65 subunit (endogenous, HEK-293T …); test: Co-IP from transfected HEK-293T cells, WB
[5] = target: T1, NF-κB p50 subunit (endogenous, HEK-293T …); test: Co-IP of single point mutants, WB
[6] = target: T2, NF-κB p65 subunit (endogenous, HEK-293T …); test: Co-IP of single point mutants, WB

T2 sequence (Q04206 whole entry): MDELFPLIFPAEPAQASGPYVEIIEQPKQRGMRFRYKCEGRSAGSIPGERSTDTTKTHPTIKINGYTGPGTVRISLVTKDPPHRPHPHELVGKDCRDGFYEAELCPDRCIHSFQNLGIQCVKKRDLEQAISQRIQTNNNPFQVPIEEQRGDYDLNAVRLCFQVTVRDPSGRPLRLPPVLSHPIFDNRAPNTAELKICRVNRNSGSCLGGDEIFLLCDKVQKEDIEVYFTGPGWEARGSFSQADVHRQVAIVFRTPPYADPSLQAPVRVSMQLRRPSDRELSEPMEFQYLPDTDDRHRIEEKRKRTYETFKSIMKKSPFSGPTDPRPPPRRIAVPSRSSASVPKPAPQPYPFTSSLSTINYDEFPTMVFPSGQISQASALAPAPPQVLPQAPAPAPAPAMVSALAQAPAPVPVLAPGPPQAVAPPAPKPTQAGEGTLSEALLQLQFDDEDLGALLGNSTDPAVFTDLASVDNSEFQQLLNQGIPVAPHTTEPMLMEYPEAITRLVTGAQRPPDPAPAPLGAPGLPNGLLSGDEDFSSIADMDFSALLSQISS

Binder	binding result [5]	binding result [6]	also measured
IκBα HEE84-86AAA / SOF^NF-κB (SEQ ID NO: 1) (other, Compose mutant of IκBα, expressed in HEK-293T cells; also called IκBα SOF^NF-κB; H84, E85, E86 to A; not shown: HA tag) MFQAAERPQEWAMEGPRDGLKKERLLDDRHDSGLDSMKDEEYEQMVKELQEIRLEPQEVPRGSEPWKQQLTEDGDSFLHLAIIAAAKALTMEVIRQVKGDLAFLNFQNNLQQTPLHLAVITNQPEIAEALLGAGCDPELRDFRGNTPLHLACEQGCLASVGVLTQSCTTPHLHSILKATNYNGHTCLHLASIHGYLGIVELLVSLGADVNAQEPCNGRTALHLAVDLQNPDLVSLLLKCGADVNRVTYQGYSPYQLTWGRPSTRIQQQLGQLTLENLQMLPESEDEESYDTESEFTEFTEDELPYDDCVFGGQRLTL			binding result [1]: binds; binding result [2]: binds
IκBα compose mutant H84, E85, E86, N108, Q112 to A (other, not shown: HA tag) MFQAAERPQEWAMEGPRDGLKKERLLDDRHDSGLDSMKDEEYEQMVKELQEIRLEPQEVPRGSEPWKQQLTEDGDSFLHLAIIAAAKALTMEVIRQVKGDLAFLNFQANLQATPLHLAVITNQPEIAEALLGAGCDPELRDFRGNTPLHLACEQGCLASVGVLTQSCTTPHLHSILKATNYNGHTCLHLASIHGYLGIVELLVSLGADVNAQEPCNGRTALHLAVDLQNPDLVSLLLKCGADVNRVTYQGYSPYQLTWGRPSTRIQQQLGQLTLENLQMLPESEDEESYDTESEFTEFTEDELPYDDCVFGGQRLTL			binding result [3]: no binding; binding result [4]: no binding
IκBα D75A / SOF^PRC2 (SEQ ID NO: 2) (other, Single point mutant of IκBα; also called IκBα SOF^PRC2; IkBa D75A; not shown: HA tag) MFQAAERPQEWAMEGPRDGLKKERLLDDRHDSGLDSMKDEEYEQMVKELQEIRLEPQEVPRGSEPWKQQLTEDGASFLHLAIIHEEKALTMEVIRQVKGDLAFLNFQNNLQQTPLHLAVITNQPEIAEALLGAGCDPELRDFRGNTPLHLACEQGCLASVGVLTQSCTTPHLHSILKATNYNGHTCLHLASIHGYLGIVELLVSLGADVNAQEPCNGRTALHLAVDLQNPDLVSLLLKCGADVNRVTYQGYSPYQLTWGRPSTRIQQQLGQLTLENLQMLPESEDEESYDTESEFTEFTEDELPYDDCVFGGQRLTL	no binding	no binding	
IκBα N108A / SOF^PRC2 (SEQ ID NO: 3) (other, Single point mutant of IκBα; also called IκBα SOF^PRC2 mutant N108A; IkBa N108A; not shown: HA tag) MFQAAERPQEWAMEGPRDGLKKERLLDDRHDSGLDSMKDEEYEQMVKELQEIRLEPQEVPRGSEPWKQQLTEDGDSFLHLAIIHEEKALTMEVIRQVKGDLAFLNFQANLQQTPLHLAVITNQPEIAEALLGAGCDPELRDFRGNTPLHLACEQGCLASVGVLTQSCTTPHLHSILKATNYNGHTCLHLASIHGYLGIVELLVSLGADVNAQEPCNGRTALHLAVDLQNPDLVSLLLKCGADVNRVTYQGYSPYQLTWGRPSTRIQQQLGQLTLENLQMLPESEDEESYDTESEFTEFTEDELPYDDCVFGGQRLTL	no binding	no binding	

Source: patent EP4239334A1 (Consorcio Centro de Investigación Biomédica en Red (CIBER), dated 2023)
